Biological target: human β2 adrenergic receptor, wild type (human) (UniProt P07550)
Assay: cell-based or functional assay

For MbNb80^cHopQ (designed binder), the apparent potency shift for epinephrine: IC50 for β2AR-wt alone divided by IC50^high in the presence of MbNb80^cHopQ ([3H]-DHA competition) (fold (IC50 ratio)) was 2000 and the apparent potency shift for isoprotenerol: IC50 for β2AR-wt divided by IC50^high in the presence of MbNb80^cHopQ ([3H]-DHA competition) (fold (IC50 ratio)) was 2000.
